The results in this text go back to patent US6641997B1, “Assays for screening compounds which interact with cation channel proteins, mutant prokaryotic cation channel proteins, and uses thereof” (The Rockefeller University, priority 1998, dated 2003).

Assay [1] addresses T1, mutant kcsa K+ channel (Q58A, T61S, R64D) (Streptomyces lividans, UniProt P0A334, P2A/Q58A/R64D/T61S).
T1 construct: made in house; host or cells: E. coli XL-1 Blue
T1 sequence (P0A334 1-158 P2A/Q58A/T61S/R64D limits assumed): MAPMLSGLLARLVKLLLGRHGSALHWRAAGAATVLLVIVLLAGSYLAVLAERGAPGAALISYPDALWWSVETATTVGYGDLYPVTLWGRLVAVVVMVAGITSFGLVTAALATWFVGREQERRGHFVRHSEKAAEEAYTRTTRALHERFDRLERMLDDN
Kind of assay: Competition binding assay: unlabeled toxin against labeled Agitoxin2 on mutant kcsa K+ channel resin. The following applies: for Kd: labeled toxin 0.06 μM, Kdhot 0.62 μM, FIG. 11B, read-out: competing toxin dissociation constant Kdcold; for decrease of affinity caused by the toxin mutation: relative to wild type agitoxin2.
Excerpt: (§1) Three mutations (Q58A, T61S, R64D) were introduced into the kcsa K^+ channel gene to modify its pore region sequence using PCR mutagenesis and confirmed by DNA sequencing. The gene also contained a mutation at the second residue (P2A) to introduce an ncol restriction endonuclease site and it was lacking the last two carboxyl terminal residues (both Arg) to avoid proteolysis during the protein preparation. This gene was cloned into the pQE60 vector for expression with a carboxyl terminal thrombin and hexahistidine fusion. Channel protein was expressed in XL-1 Blue strain of E. coli (Stratagene) by induction with […] at a concentration of 1.0 mM. Three hours following induction bacteria were sonicated in 50 mM Tris buffer (7.5), 100 mM KCl, 10 mM Mg2SO4, 25 mg DNAse 1, 250 mM sucrose, in addition to pepstatin, leupeptin, and PMSF. The channel was extracted in the same solution containing 40 mM decylmaltoside (Anatrace) at room temperature. Following centrifugation the supernatant was bound to cobalt resin (Talon) at a protein to resin ratio that will saturate the resin. The resin was washed, and detergent concentration was lowered to 10.0 mM. One mL columns were prepared. The control resin (no channel) was handled in the same manner. The resin preparation was the same for mass spectrometry and binding studies.
(§2) Wild type and mutant agitoxin2 were prepared (10). Tritiated N-ethylmaleimide (NEN Life Sciences) was conjugated to agitoxin2 D20C (14). Binding was performed in a 300 μL volume containing 50 mM Tris (7.5), 100 mM KCl, 10 mM declymaltoside, and 0.3 μL of cobalt resin saturated with the mutant kcsa K^+ channel for 30 minutes at room temperature. Following brief centrifugation the supernatant was removed, resin was applied to a filter, rinsed briefly with ice cold buffer, and then counted in a scintillation counter. All binding measurements were made with a paired control containing a saturating concentration (200 times KD) of unlabeled wild type agitoxin2 to determine nonspecific binding. The competition assay was carried out under the same conditions. Labeled Agitoxin2 at 0.06 μM was always present and unlabeled toxin was added to compete with bound labeled toxin.
as §2, with “17. Wild” for “Wild”, “Kd)” for “KD)”

Assay [2] deals with T1, mutant kcsa K+ channel (Q58A, T61S, R64D). Kind of assay: Mutant kcsa K+ channel cobalt column screen of scorpion venom, eluate analysed by MALDI-TOF mass spectrometry. Format: binding. The following applies: 40 mg Leiurus quinquestriatus hebraeus venom on 1 mL column, imidazole elution.
Excerpt: FIG. 10. Mass Spectra of scorpion toxins before and after channel column purification MALDI-TOF mass spectra of venom before purification (A) and after elution from a cobalt column in the absence (B) and presence (C) of attached mutant kesa K^+ channel. The accuracy of the mass measurements (±0.3 Da) permitted identification of most of the major peaks in the mass spectra searched from databases of known toxins of the Leiurus quinquestratus hebraeus scorpion (D). The kesa-binding component labeled * could not be assigned to a known scorpion toxin. The component labeled X (4193.0 Da) binds nonspecifically to the column and was not identified. MALDI_MS was performed with the MALDI matrix 4-hydroxy-α-cyano-cinnamic acid (16 of Example II).
as §1, with “Following centrifugation the supernatant was bound to cobalt resin (Talon) at a protein to resin ratio that will saturate the resin. The resin was washed, and detergent concentration was lowered to 10.0 mM. One mL columns were prepared. The control resin (no channel) was handled in the same manner. The resin preparation was the same for mass spectrometry and binding studies.” left out
Guided by knowledge of the toxin receptor on the Shaker K^+ channel, set forth in SEQ ID NO:4, three point mutations were introduced into the kcsa K^+ channel (SEQ ID NO: 1) that should render it sensitive to scorpion toxins (FIG. 9). […] The eluate was analyzed with MALDI-TOF mass spectrometry, focusing on the low mass range appropriate for scorpion toxins (about 4000 Da). […]

Regarding “K27A: Agitoxin2 mutant, Lys 27 substituted by alanine”, in assay [1], the Kd came to 81 µM and the “decrease of affinity caused by the toxin mutation” value is reported as 130 fold.
Consider “N30A: Agitoxin2 mutant, Asn 30 substituted by alanine”, for which, in assay [1], the Kd is 27 µM and the “decrease of affinity caused by the toxin mutation” value is on record as 45 fold.
On to agitoxin2, for which, in assay [1], the Kd stood at 0.62 µM. In addition, the “binding to the channel column (mass peak in the eluate)” value (shortened to “binding to the channel column”) in assay [2] was “dramatic enhancement of specific peaks”.
Consider charybdotoxin, for which the “binding to the channel column” value in assay [2] is listed as “dramatic enhancement of specific peaks”.
Take chlorotoxin: the “binding to the channel column” value in assay [2] is given as “did not bind”.
